Test: Blood haemoglobin level in cancer patients (case examples 1-9)
Format: in vivo, human
Text: […] Diagnosis: progressive diffuse-nodular multiple myeloma of the stage IIIB. Myelogenic nephropathy, stage III CKD, terminal stage. Chronic programmed dialysis. The initial level of haemoglobin was 72 g/l. The receiving of EPO 20000 IU and iron preparations was prescribed for a month, as a result of which the level of haemoglobin increased to 84 g/l. However, the patient's condition worsened, and there were diagnosed acute transmural myocardial infarction and weight loss in the patient. The patient was prescribed the administration of 30 ml of the sterile pyrogen-free aqueous solution of the poloxamer comprising 13.3 wt % poloxamer-188 (Emuxol-268 of Grade “A”) and water for injection as the remaining part for 30 days. The level of haemoglobin was 116 g/l. Then, 30 ml of the said poloxamer solution was administered to the patient on a daily basis during 9 courses of chemotherapy (cyclophosphan and boramilane), while EPO and iron preparations were no longer prescribed. The level of haemoglobin was maintained in the range of 116-125 g/l.
[…] Diagnosis: locally advanced or metastatic bladder cancer of the 4t^h stage with lumbar vertebral metastases. The initial level of haemoglobin was 129 g/l.
Immunotherapy 1: the patient underwent a course of the therapy with the nivolumab preparation (Opdivo) for 4 months. […]

Question: For nivolumab, which “level of haemoglobin after therapy” value (Example 2, Patient A, bladder cancer 4th stage, nivolumab (Opdivo) for 4 months with regular donated red blood cell transfusion, initial level 129 g/l) is on record?
Answer: 123000 µg/mL

Question: What about the “level of haemoglobin after 1 course” value (Example 5, Patient D, right kidney tumor with metastases, nivolumab (Opdivo) immunotherapy, 1 course, initial level 148 g/l) of the same substance?
Answer: 104000 µg/mL
